Results taken from patent US20240294636A1 (YALE UNIVERSITY, published 2024).

Molecular target: T1, mouse Unc5B (mouse, UniProt Q8K1S3 27-945)
T1 construct: whole, on cells; Endogenous protein; also called Uncoordinated 5B
Assay: immunoprecipitation from mouse brain endothelial Bend.3 cells with the named antibody, western blot of the precipitate for Unc5B and Claudin5

T1 sequence (Q8K1S3 27-945): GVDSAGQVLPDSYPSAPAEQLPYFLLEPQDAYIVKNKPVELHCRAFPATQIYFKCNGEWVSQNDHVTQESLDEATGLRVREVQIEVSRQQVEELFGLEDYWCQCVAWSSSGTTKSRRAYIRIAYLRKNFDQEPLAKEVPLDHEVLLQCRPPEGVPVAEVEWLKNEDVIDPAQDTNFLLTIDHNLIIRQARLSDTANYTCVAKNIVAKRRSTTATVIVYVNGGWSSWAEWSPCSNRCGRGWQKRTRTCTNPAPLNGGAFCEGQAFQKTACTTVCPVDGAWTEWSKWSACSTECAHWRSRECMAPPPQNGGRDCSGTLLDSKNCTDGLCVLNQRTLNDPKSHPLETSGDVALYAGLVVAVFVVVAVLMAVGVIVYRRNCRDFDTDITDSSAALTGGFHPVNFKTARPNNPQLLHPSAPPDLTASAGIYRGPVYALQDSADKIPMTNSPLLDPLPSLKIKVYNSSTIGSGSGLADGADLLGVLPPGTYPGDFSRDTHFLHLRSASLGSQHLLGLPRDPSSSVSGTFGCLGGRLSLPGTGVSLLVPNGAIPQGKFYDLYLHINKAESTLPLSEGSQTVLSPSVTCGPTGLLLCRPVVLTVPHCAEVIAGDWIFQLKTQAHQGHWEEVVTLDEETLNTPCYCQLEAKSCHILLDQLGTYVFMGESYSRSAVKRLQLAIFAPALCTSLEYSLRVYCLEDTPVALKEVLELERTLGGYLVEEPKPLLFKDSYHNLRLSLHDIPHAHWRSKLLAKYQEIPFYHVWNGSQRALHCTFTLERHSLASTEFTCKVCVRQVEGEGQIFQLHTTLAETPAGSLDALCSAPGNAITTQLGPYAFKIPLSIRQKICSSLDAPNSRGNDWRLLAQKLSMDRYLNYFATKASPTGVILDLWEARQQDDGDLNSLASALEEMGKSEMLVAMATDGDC

B1: anti-Unc5B antibody 1103 (antibody, V domains shown)
VH: EVQLVESGGGLVQPGGSLRLSCAASGFNISYYSIHWVRQAPGKGLEWVASIYSSSGYTSYADSVKGRFTISADTSKNTAYLQMNSLRAEDTAVYYCARGYGLDYWGQGTLVTVSS
VL: DIQMTQSPSSLSASVGDRVTITCRASQSVSSAVAWYQQKPGKAPKLLIYSASSLYSGVPSRFSGSRSGTDFTLTISSLQPEDFATYYCQQHYSYPITFGQGTKVEIKR
notes: also called anti-Unc5B-3
**Q.** Does B1 bind?
**A.** binds
